B1: Cytochrome c-553 wild type, B8C6L5 (protein)
chain: MKLTIVAALIASASAWTTPKSFESVKAAVAGAAVTAGVAVSPAFAGDVGAGEQIFNANCAACHAGGQNVIMPDKTLEKEALEQYLAGGRNEKAVMTQVTNGKNAMPAFGGRLSDEDIANVASYVIATSEAGWD
B2: Cytochrome c-553 wild type, A0A1E7EP28 (protein)
chain: MKFAIFATLLVSASAFSINKADVAKAAAAGAIAFSVAAGPAFAGDVGAGEQIFNANCAACHAGGQNVIMPEKTLEKEALDQYLSGGRSEKSVMTQVTNGKNAMPAFGGRLSEEDIANVASYVISSAEAGWEE

Conditions: Thalassiosira pseudonana; pH 7.4; 15 °C; GdnHCl; UV/Vis spectroscopy; HEPES; potassium ferricyanide; transition: 2; reversible: > 90% (Yes); whole UniProt chain shown

Question: What does the source list for B1?
Answer: denaturant m value: 2.1 kcal/mol/M; denaturant midpoint (higher = more stable): 1.2 M; unfolding free energy: 2.63 kcal/mol

Same assay, conditions: Thalassiosira pseudonana; pH 7.4; Thermal; UV/Vis spectroscopy; HEPES; transition: 2; reversible: > 90% (Yes); whole UniProt chain shown

Question: Which Tm does the source give for B1 here?
Answer: Its Tm is 39.1 °C.

Question: And the “unfolding enthalpy (van 't Hoff)” value?
Answer: The value was 38.7 kcal/mol.

Same assay, conditions: Fragilariopsis cylindrus CCMP1102; pH 7.4; 15 °C; GdnHCl; UV/Vis spectroscopy; HEPES; potassium ferricyanide; transition: 2; reversible: > 90% (Yes); whole UniProt chain shown

Question: For B2, which denaturant m value is on record?
Answer: Its denaturant m value is 4.6 kcal/mol/M.

Question: And the “denaturant midpoint (higher = more stable)” value?
Answer: Its value is 0.5 M.

Question: What about the unfolding free energy of the same protein?
Answer: Its unfolding free energy is 2.15 kcal/mol.

Same assay, conditions: Fragilariopsis cylindrus CCMP1102; pH 7.4; Thermal; UV/Vis spectroscopy; HEPES; transition: 2; reversible: > 90% (Yes); whole UniProt chain shown

Question: Which Tm does the source give for B2 here?
Answer: The Tm was 28.8 °C.

Question: What about the “unfolding enthalpy (van 't Hoff)” value of the same protein?
Answer: Its value is 44.7 kcal/mol.
